Bridge positions count the residues as written; N and C are the ends. Square brackets hold non-standard residues; d marks the D form. Ends that are not written are not given here. Orn = NCCC[C@H](N)C(=O)O; Dab = NCC[C@H](N)C(=O)O; Dap = NC[C@H](N)C(=O)O

B1: [G^14, (E^16, Dpr^21)lac]ADM(14-52) (peptide)
peptide: GGERFGT[Dap]TVQKLAHQIYQFTDKDKDNVAPRSKISPQGY-NH2
modifications: lactam 3-8
B2: [G^14, (Dpr^16, E^21)lac]ADM(14-52) (peptide)
peptide: GG[Dap]RFGTETVQKLAHQIYQFTDKDKDNVAPRSKISPQGY-NH2
modifications: lactam 3-8; N-terminus assumed
SMILES: CC[C@H](C)[C@H](NC(=O)[C@H](CCC(N)=O)NC(=O)[C@H](Cc1c[nH]cn1)NC(=O)[C@H](C)NC(=O)[C@H](CC(C)C)NC(=O)[C@H](CCCCN)NC(=O)[C@H](CCC(N)=O)NC(=O)[C@@H](NC(=O)[C@@H](NC(=O)[C@@H]1CCC(=O)NC[C@H](NC(=O)CNC(=O)CN)C(=O)N[C@@H](CCCNC(=N)N)C(=O)N[C@@H](Cc2ccccc2)C(=O)NCC(=O)N[C@@H]([C@@H](C)O)C(=O)N1)[C@@H](C)O)C(C)C)C(=O)N[C@@H](Cc1ccc(O)cc1)C(=O)N[C@@H](CCC(N)=O)C(=O)N[C@@H](Cc1ccccc1)C(=O)N[C@H](C(=O)N[C@@H](CC(=O)O)C(=O)N[C@@H](CCCCN)C(=O)N[C@@H](CC(=O)O)C(=O)N[C@@H](CCCCN)C(=O)N[C@@H](CC(=O)O)C(=O)N[C@@H](CC(N)=O)C(=O)N[C@H](C(=O)N[C@@H](C)C(=O)N1CCC[C@H]1C(=O)N[C@@H](CCCNC(=N)N)C(=O)N[C@@H](CO)C(=O)N[C@@H](CCCCN)C(=O)N[C@H](C(=O)N[C@@H](CO)C(=O)N1CCC[C@H]1C(=O)N[C@@H](CCC(N)=O)C(=O)NCC(=O)N[C@@H](Cc1ccc(O)cc1)C(N)=O)[C@@H](C)CC)C(C)C)[C@@H](C)O
B3: [G^14, (Orn^16, D^21)lac]ADM(14-52) (peptide)
peptide: GG[Orn]RFGTDTVQKLAHQIYQFTDKDKDNVAPRSKISPQGY-NH2
modifications: lactam 3-8; N-terminus assumed
SMILES: CC[C@H](C)[C@H](NC(=O)[C@H](CCC(N)=O)NC(=O)[C@H](Cc1c[nH]cn1)NC(=O)[C@H](C)NC(=O)[C@H](CC(C)C)NC(=O)[C@H](CCCCN)NC(=O)[C@H](CCC(N)=O)NC(=O)[C@@H](NC(=O)[C@@H](NC(=O)[C@@H]1CC(=O)NCCC[C@H](NC(=O)CNC(=O)CN)C(=O)N[C@@H](CCCNC(=N)N)C(=O)N[C@@H](Cc2ccccc2)C(=O)NCC(=O)N[C@@H]([C@@H](C)O)C(=O)N1)[C@@H](C)O)C(C)C)C(=O)N[C@@H](Cc1ccc(O)cc1)C(=O)N[C@@H](CCC(N)=O)C(=O)N[C@@H](Cc1ccccc1)C(=O)N[C@H](C(=O)N[C@@H](CC(=O)O)C(=O)N[C@@H](CCCCN)C(=O)N[C@@H](CC(=O)O)C(=O)N[C@@H](CCCCN)C(=O)N[C@@H](CC(=O)O)C(=O)N[C@@H](CC(N)=O)C(=O)N[C@H](C(=O)N[C@@H](C)C(=O)N1CCC[C@H]1C(=O)N[C@@H](CCCNC(=N)N)C(=O)N[C@@H](CO)C(=O)N[C@@H](CCCCN)C(=O)N[C@H](C(=O)N[C@@H](CO)C(=O)N1CCC[C@H]1C(=O)N[C@@H](CCC(N)=O)C(=O)NCC(=O)N[C@@H](Cc1ccc(O)cc1)C(N)=O)[C@@H](C)CC)C(C)C)[C@@H](C)O
B4: [G^14, (Dab^16, D^21)lac]ADM(14-52) (peptide)
peptide: GG[Dab]RFGTDTVQKLAHQIYQFTDKDKDNVAPRSKISPQGY-NH2
modifications: lactam 3-8; N-terminus assumed
SMILES: CC[C@H](C)[C@H](NC(=O)[C@H](CCC(N)=O)NC(=O)[C@H](Cc1c[nH]cn1)NC(=O)[C@H](C)NC(=O)[C@H](CC(C)C)NC(=O)[C@H](CCCCN)NC(=O)[C@H](CCC(N)=O)NC(=O)[C@@H](NC(=O)[C@@H](NC(=O)[C@@H]1CC(=O)NCC[C@H](NC(=O)CNC(=O)CN)C(=O)N[C@@H](CCCNC(=N)N)C(=O)N[C@@H](Cc2ccccc2)C(=O)NCC(=O)N[C@@H]([C@@H](C)O)C(=O)N1)[C@@H](C)O)C(C)C)C(=O)N[C@@H](Cc1ccc(O)cc1)C(=O)N[C@@H](CCC(N)=O)C(=O)N[C@@H](Cc1ccccc1)C(=O)N[C@H](C(=O)N[C@@H](CC(=O)O)C(=O)N[C@@H](CCCCN)C(=O)N[C@@H](CC(=O)O)C(=O)N[C@@H](CCCCN)C(=O)N[C@@H](CC(=O)O)C(=O)N[C@@H](CC(N)=O)C(=O)N[C@H](C(=O)N[C@@H](C)C(=O)N1CCC[C@H]1C(=O)N[C@@H](CCCNC(=N)N)C(=O)N[C@@H](CO)C(=O)N[C@@H](CCCCN)C(=O)N[C@H](C(=O)N[C@@H](CO)C(=O)N1CCC[C@H]1C(=O)N[C@@H](CCC(N)=O)C(=O)NCC(=O)N[C@@H](Cc1ccc(O)cc1)C(N)=O)[C@@H](C)CC)C(C)C)[C@@H](C)O
B5: [G^14, (D^16, Orn^21)lac]ADM(14-52) (peptide)
peptide: GGDRFGT[Orn]TVQKLAHQIYQFTDKDKDNVAPRSKISPQGY-NH2
modifications: lactam 3-8

The target of one assay is human adrenomedullin-receptor (human, UniProt Q16602 23-461). The assay can be described thus: cell-based or functional assay.
Sequence of human adrenomedullin-receptor (Q16602 23-461): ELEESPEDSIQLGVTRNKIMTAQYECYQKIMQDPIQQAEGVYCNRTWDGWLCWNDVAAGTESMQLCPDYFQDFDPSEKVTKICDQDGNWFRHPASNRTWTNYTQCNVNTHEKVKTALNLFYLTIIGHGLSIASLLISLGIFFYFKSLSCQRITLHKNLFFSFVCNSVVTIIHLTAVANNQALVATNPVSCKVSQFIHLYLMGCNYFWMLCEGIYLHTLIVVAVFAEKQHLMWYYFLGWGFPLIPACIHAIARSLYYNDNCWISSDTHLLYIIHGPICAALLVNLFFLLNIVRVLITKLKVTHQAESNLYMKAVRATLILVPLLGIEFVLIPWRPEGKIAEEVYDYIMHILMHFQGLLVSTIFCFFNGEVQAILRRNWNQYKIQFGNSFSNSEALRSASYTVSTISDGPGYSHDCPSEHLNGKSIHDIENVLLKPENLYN
With B1, the “EC50 [nM], aequorin luminescence of CHO adrenomedullin-receptor reporter cells” value (“EC50 [nM], aequorin luminescence” for short) was above 1000 nM.

Regarding B2, the “EC50 [nM], aequorin luminescence” value was 5.26 nM.

Take B3: the “EC50 [nM], aequorin luminescence” value is above 1000 nM.

As for B4, the “EC50 [nM], aequorin luminescence” value was above 1000 nM.

Consider B5, for which the “EC50 [nM], aequorin luminescence” value came to 17.3 nM.

For a further assay, the target named is CLR fused to EYFP with RAMP2 fused to ECFP. The assay can be described thus: cell-based or functional assay.
Sequence of CLR fused to EYFP with RAMP2 fused to ECFP (Q16602 whole entry, chain 1 of 2, the tested form may be a part): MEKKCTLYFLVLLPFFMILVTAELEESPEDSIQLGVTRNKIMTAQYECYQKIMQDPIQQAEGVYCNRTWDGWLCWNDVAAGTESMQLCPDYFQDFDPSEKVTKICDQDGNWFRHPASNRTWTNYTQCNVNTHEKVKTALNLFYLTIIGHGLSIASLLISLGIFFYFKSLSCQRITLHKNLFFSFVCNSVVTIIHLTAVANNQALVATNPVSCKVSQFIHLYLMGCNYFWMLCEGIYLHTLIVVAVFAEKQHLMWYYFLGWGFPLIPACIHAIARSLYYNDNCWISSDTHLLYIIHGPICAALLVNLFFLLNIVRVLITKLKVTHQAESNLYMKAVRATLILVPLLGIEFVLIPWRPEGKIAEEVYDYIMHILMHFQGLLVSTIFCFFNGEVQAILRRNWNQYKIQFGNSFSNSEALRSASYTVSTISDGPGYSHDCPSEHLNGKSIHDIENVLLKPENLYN
Sequence of CLR fused to EYFP with RAMP2 fused to ECFP (O60895 whole entry, chain 2 of 2, further chain, the tested form may be a part): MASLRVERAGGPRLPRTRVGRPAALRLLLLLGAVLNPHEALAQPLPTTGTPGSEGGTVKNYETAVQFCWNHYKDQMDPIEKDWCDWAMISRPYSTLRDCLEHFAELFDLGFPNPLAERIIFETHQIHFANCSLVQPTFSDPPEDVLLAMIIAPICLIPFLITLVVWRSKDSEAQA
With B1, the “EC50 [nM], cAMP assay (CRE-luciferase luminescence, HEK293 cells)” value (shortened to “EC50 [nM], cAMP assay”) worked out at 303 nM.

Regarding B2, the “EC50 [nM], cAMP assay” value came to 2.9 nM.

As to B3, the “EC50 [nM], cAMP assay” value is above 1000 nM.

Turning to B4, the “EC50 [nM], cAMP assay” value is 112 nM.

For the molecule B5, the “EC50 [nM], cAMP assay” value is 20 nM.

The values above are taken from patent US20180022780A1 (Bayer, published 2018).
